These results are taken from patent US20220119492A1 (MEDIKINE, published 2022).

Primed or numbered codes have the meaning given here. Ends that are not written are not given here. PEG10 = NCCOCCOCCOCCOCCOCCOCCOCCOCCOCCOCCC(=O)O; PEG20′ = not defined here; PEG4′ = not defined here

The chains are these.
T1: human IL-2Rγc (CD132 protein, Fc Tag) (23-254) (human, UniProt P31785 23-254)
T1 construct: range 23-254; Bought protein; also called hu-IL-2Rγc subunit; IL-2Rγc subunit; not shown: Fc tag of the bought protein
T1 sequence (looked up): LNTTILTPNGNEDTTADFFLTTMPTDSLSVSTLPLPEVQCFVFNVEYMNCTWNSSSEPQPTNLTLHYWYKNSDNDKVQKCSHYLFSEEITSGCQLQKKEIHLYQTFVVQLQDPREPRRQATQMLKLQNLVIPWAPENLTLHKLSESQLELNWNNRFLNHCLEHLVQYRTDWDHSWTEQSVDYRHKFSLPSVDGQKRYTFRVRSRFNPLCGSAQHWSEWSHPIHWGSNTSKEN

T2: human IL-2Rβ (CD122 protein, Fc Tag) (27-239) (human, UniProt P14784 27-239)
T2 construct: range 27-239; Bought protein; also called hu-IL-2Rβ subunit; IL-2Rβ subunit; not shown: Fc tag of the bought protein
T2 sequence (looked up): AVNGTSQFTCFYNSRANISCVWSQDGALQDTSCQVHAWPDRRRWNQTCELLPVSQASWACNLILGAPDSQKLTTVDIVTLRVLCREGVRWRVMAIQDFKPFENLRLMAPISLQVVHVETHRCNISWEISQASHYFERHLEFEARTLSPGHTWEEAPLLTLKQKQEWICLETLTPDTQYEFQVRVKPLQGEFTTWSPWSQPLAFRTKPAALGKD

T3: hu-IL-2R (human, UniProt P14784 27-551; P31785 23-369)
T3 sequence (looked up) 1: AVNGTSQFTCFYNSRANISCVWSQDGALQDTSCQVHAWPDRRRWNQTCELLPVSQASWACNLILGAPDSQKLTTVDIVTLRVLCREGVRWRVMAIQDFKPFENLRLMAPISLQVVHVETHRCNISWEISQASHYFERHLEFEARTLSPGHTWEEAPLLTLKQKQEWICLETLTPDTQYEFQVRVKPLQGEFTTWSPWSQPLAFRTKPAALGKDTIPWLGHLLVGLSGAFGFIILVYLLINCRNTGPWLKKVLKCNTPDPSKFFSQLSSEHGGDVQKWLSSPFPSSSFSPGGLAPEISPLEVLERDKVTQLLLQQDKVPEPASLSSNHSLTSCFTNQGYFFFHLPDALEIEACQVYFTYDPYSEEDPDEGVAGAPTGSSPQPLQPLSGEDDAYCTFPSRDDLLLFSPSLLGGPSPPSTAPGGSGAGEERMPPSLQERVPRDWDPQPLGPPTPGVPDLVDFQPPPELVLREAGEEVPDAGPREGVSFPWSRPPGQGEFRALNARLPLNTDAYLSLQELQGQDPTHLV
T3 sequence (looked up) 2: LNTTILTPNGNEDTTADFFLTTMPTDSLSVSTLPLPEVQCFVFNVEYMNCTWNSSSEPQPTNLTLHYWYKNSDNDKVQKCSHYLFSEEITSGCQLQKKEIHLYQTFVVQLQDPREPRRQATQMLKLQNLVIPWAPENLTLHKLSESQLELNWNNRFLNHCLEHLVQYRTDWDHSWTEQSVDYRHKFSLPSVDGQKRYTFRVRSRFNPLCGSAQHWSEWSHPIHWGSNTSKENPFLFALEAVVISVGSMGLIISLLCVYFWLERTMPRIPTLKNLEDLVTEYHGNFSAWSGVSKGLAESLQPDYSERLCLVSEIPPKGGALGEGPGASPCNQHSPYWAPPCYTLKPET

B1: IL-2Rβγc ligand having SEQ ID NO: 4171 (peptide)
peptide: GGGELLVDCFKVKVGELCDLFFGPAPAPAPAPAPAPAPAGVVCQDWEGVELCWQGG
B2: PEG-IL-2Rβγc ligand construct PEG-4 (peptide)
peptide: GGWYPCWMAQLGELCDLDGGGGSGGVVCQDWEGVELCWQGG-{PEG10-PEG 40 kDa branched}
modifications: cysteine pairing not given here
B3: PEG-IL-2Rβγc ligand construct PEG-7 (peptide)
peptide: {PEG 40 kDa branched-PEG20′}-GGWYPCWMAQLGELCDLDGGGGSGGVVCQDWEGVELCWQGG
modifications: cysteine pairing not given here; reading uncertain
B4: PEG-IL-2Rβγc ligand construct PEG-5 (peptide)
peptide: {PEG 20 kDa linear-PEG20′}-GGWYPCWMAQLGELCDLDGGGGSGGVVCQDWEGVELCWQGG
modifications: cysteine pairing not given here; reading uncertain
B5: PEG-IL-2Rβγc ligand construct PEG-3 (peptide)
peptide: {PEG 40 kDa branched}-APAPAPAPAPAPGGWYPCWMAQLGELCDLDGGGGSGGVVCQDWEGVELCWQGG
modifications: cysteine pairing not given here
B6: PEG-IL-2Rβγc ligand construct PEG-1 (peptide)
peptide: {PEG 40 kDa branched-PEG10}-GGWYPCWMAQLGELCDLDGGGGSGGVVCQDWEGVELCWQGG
modifications: not fully specified; printed as -GGWYPCWMAQLGELCDLDGGGGSGGVVCQDWEGVELCWQGG-; cysteine pairing not given here
B7: PEG-IL-2Rβγc ligand construct PEG-2 (peptide)
peptide: GGWYPCWMAQLGELCDLDGGGGSGGVVCQDWEGVELCWQGG-{PEG4′-PEG 40 kDa branched}
modifications: cysteine pairing not given here
B8: PEG-IL-2Rβγc ligand construct PEG-6 (peptide)
peptide: {PEG 40 kDa linear-PEG20′}-GGWYPCWMAQLGELCDLDGGGGSGGVVCQDWEGVELCWQGG
modifications: cysteine pairing not given here; reading uncertain
B9: IL-2Rγc ligand SEQ ID NO: 198 (peptide)
peptide: KVCEMWGGVLLCWN
notes: Used as phage clone; also called family 1A
B10: IL-2Rγc ligand SEQ ID NO: 266 (peptide)
peptide: CPSMLQGPERTWVC
notes: Used as phage clone; also called family 4
B11: IL-2Rγc ligand SEQ ID NO: 202 (peptide)
peptide: RTCTEWENVVLCWV
notes: also called family 1A
B12: IL-2Rγc ligand SEQ ID NO: 236 (peptide)
peptide: MCWLEWGEWVGSCL
notes: Used as synthetic peptide and as phage clone; also called family 2
B13: IL-2Rγc ligand SEQ ID NO: 224 (peptide)
peptide: DCSMWEGVELCW
notes: Used as synthetic peptide and as phage clone; also called family 1B
B14: IL-2Rγc ligand SEQ ID NO: 248 (peptide)
peptide: DLSDLSTFWLSQ
notes: Used as synthetic peptide and as phage clone; also called family 3
B15: IL-2Rγc ligand SEQ ID NO: 1032 (peptide)
peptide: SLLKCYNASTCASVF
notes: Used as synthetic peptide and as phage clone; also called family 5
B16: IL-2Rβ ligand SEQ ID NO: 170 (peptide)
peptide: QICDVGQWWPDCQV
notes: Used as phage clone; also called family 2A
B17: IL-2Rβ ligand SEQ ID NO: 1034 (peptide)
peptide: CGMAIGDLCMWT
notes: Used as phage clone; also called family 2C
B18: IL-2Rβ ligand SEQ ID NO: 169 (peptide)
peptide: NMCLVGDYWPSCQI
notes: also called family 2A
B19: IL-2Rβ ligand SEQ ID NO: 1044 (peptide)
peptide: RSCYYKRPRLWCSE
notes: Used as synthetic peptide and as phage clone; also called family 4
B20: IL-2Rβ ligand SEQ ID NO: 1042 (peptide)
peptide: RWGDVGDLLMPL
notes: also called family 2C
B21: IL-2Rβ ligand SEQ ID NO: 58 (peptide)
peptide: YDCRIAQVGELCDL
notes: Used as synthetic peptide and as phage clone; also called family 1

For one test, the target named is T4, cynomolgus monkey IL-2Rβ subunit (cynomolgus monkey).
T4 construct: Bought protein; also called cyno-IL-2Rβ subunit
T4 sequence (Q38J85 whole entry): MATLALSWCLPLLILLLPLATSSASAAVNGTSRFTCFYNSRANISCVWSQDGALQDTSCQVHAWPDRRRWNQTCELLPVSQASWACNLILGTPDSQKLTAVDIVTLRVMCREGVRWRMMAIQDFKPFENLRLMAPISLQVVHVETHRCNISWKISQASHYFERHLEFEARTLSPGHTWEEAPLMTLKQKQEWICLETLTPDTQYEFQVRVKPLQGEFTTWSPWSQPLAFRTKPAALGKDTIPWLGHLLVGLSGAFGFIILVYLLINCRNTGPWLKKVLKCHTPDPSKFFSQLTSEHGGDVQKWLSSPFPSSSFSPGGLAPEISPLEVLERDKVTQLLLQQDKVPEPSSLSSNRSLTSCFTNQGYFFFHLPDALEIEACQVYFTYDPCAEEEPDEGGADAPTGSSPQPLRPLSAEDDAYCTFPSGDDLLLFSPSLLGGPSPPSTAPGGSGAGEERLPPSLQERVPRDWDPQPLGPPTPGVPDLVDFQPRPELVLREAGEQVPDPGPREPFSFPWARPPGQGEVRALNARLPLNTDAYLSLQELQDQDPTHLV
Nature of the test: competition ELISA, peptide tracer. Background: ELISA stands for enzyme-linked immunosorbent assay.
What is called IC50 is the point on the concentration scale where inhibition reaches its midpoint. As for B1, the IC50 was < 100000 nM.

In a further test the target is T1, human IL-2Rγc (CD132 protein, Fc Tag) …. Nature of the test: competition ELISA, peptide tracer.
As for B1, the IC50 is < 100000 nM.

The target in a further test is T5, cynomolgus monkey Rγc subunit (cynomolgus monkey).
T5 construct: also called cyno-IL-2Rγc subunit
Nature of the test: competition ELISA, peptide tracer.
For the molecule B1, the IC50 was < 100000 nM.

The next test concerns the target T2, human IL-2Rβ (CD122 protein, Fc Tag) …. Nature of the test: competition ELISA, peptide tracer.
With B1, the IC50 was < 100000 nM.

In another test the target is T3, hu-IL-2R. In words: cell-based or functional assay.
With B2, the “EC50 (STAT5, NK92)” value was found to be 24 nM.
For B3, the “EC50 (STAT5, NK92)” value was 8.3 nM.
Take B4: the “EC50 (STAT5, NK92)” value turned out to be 1 nM.
Consider B5, for which the “EC50 (STAT5, NK92)” value came to 2.3 nM.
As to B6, the “EC50 (STAT5, NK92)” value came to 5.8 nM.
As to B7, the “EC50 (STAT5, NK92)” value stood at 273 nM.
Consider B8, for which the “EC50 (STAT5, NK92)” value was found to be 1.6 nM.

Another test addresses T1, human IL-2Rγc (CD132 protein, Fc Tag) …. In words: IL-2Rγc IC50, assay not named in Example 29.
With B2, the IC50 was 3.7 nM.
B3 registered a half-maximal inhibitory concentration (IC50) of 1.7 nM.
Turning to B4, the IC50 amounted to 4.1 nM.
Same read-out and setting: for B5 the value was 4.3 nM; for B6, 26 nM; for B7, 690 nM.
Still for that read-out and setting: for B8 the value was 3.4 nM.

The target of a further test is T2, human IL-2Rβ (CD122 protein, Fc Tag) …. In words: IL-2Rβ IC50, assay not named in Example 29.
B2 displayed an IC50 of 8.5 nM.
B3 had an IC50 of 3.4 nM.
In the case of B4, the IC50 is 33 nM.
On the same count and under the same terms, for B5 the value was 14 nM.
For the molecule B6, the IC50 was determined as 31 nM.
Molecule B7 came in with an IC50 of 8 nM.
B8 displayed a half-maximal inhibitory concentration (IC50) of 17 nM.

For another test, the target named is T1, human IL-2Rγc (CD132 protein, Fc Tag) …. In words: competitive binding ELISA (Example 28). The protocol: (§1) In this example, IL-2R ligands were diluted to 2-times final assay concentration in PBT (1×PBS pH 7.2, 0.5% Bovine Serum Albumin, 0.05% Tween®20) and serially diluted. Fifty (50) μL was added to the appropriate wells. The plates were then incubated at 4° C. for 1 hr.
(§2) Without washing, fifty (50) μL of representative phage were added to the assay wells (phage tracer). The plates were then incubated at 4° C. for 45 min.
Take B9: the IC50 is < 10000 nM.
As to B10, the IC50 is < 10000 nM.
Take B11: the IC50 was < 10000 nM.
As to B12, the IC50 is < 10000 nM.
Regarding B13, the IC50 is < 10000 nM.
As for B14, the IC50 was < 10000 nM.
Still for that read-out and setting: the value for B15 was < 10000 nM.

A further test has as its target T2, human IL-2Rβ (CD122 protein, Fc Tag) …. Nature of the test: competitive binding ELISA (Example 28). The procedure:
as §1, §2
Regarding B16, the IC50 was < 10000 nM.
Consider B17, for which the IC50 was < 10000 nM.
For the molecule B18, the IC50 is < 10000 nM.
Consider B19, for which the IC50 is < 10000 nM.
For B20, the IC50 was < 10000 nM.
On the same count and under the same terms, the value for B21 was < 10000 nM.
